Experimental data: EP4818204A1 (Nanjing Leads Biolabs Co., Ltd., dated 2026)
Read-outs that look alike come from different tables or passages of the source. Blank lines part the entries; values can stand above or below the molecule they belong to.

What was measured:
human BMP4 protein [1] = biological target: T1, human BMP4 protein (human, UniProt P12644 293-408); test: ELISA, coated protein, antibody at 4 µg/mL
T1 construct: Bought
T1 sequence (looked up): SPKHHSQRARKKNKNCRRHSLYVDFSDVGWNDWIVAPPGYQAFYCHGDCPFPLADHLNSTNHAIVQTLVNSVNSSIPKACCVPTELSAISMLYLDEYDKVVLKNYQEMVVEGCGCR

human GFRα1 protein [2] = biological target: T2, human GFRα1 protein (human, UniProt P56159 25-429, limits assumed); test: ELISA, coated protein, antibody at 4 µg/mL
T2 construct: Bought
T2 sequence (looked up): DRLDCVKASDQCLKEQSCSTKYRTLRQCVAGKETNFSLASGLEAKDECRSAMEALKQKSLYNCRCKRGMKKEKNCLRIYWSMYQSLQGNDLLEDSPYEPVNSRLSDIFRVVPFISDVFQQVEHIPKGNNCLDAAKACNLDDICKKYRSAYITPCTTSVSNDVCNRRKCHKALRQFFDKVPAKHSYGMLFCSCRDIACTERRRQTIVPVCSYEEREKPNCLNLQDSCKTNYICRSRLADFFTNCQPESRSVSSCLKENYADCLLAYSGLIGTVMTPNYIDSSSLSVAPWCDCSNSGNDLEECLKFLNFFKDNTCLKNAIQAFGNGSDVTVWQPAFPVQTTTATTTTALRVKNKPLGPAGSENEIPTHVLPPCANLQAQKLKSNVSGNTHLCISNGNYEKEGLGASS

Human GDF15 protein = biological target: T3, Human GDF15 protein (human, UniProt Q99988 197-308); test: ELISA, coated protein, antibody at 4 µg/mL
T3 construct: Natural GDF15 is said to be a disulfide-linked homodimer; also called Human-GDF15-his
T3 sequence: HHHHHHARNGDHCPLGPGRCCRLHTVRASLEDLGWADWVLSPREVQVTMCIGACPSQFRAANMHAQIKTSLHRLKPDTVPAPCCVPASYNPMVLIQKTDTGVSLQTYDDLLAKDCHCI

human Activin B protein [3] = biological target: T4, human Activin B protein (human, UniProt P09529 293-407); test: ELISA, coated protein, antibody at 4 µg/mL
T4 construct: Bought; Activin B is by nature a dimer of inhibin beta B chains
T4 sequence (looked up): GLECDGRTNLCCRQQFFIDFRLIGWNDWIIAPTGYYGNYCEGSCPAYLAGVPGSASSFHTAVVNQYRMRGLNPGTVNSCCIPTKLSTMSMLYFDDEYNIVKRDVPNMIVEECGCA

human Activin A protein [4] = biological target: T5, human Activin A protein (human, UniProt P08476 311-426); test: ELISA, coated protein, antibody at 4 µg/mL
T5 construct: Bought; Activin A is by nature a dimer of inhibin beta A chains
T5 sequence (looked up): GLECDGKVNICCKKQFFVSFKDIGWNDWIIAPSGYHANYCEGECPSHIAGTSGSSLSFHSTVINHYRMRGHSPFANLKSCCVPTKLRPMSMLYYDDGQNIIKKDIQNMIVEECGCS

[5] = biological target: human AMH protein (human) (UniProt P03971); test: ELISA, coated protein, antibody at 4 µg/mL
human GDF1 protein [6] = biological target: T6, human GDF1 protein (human, UniProt P27539 254-372, limits assumed); test: ELISA, coated protein, antibody at 4 µg/mL
T6 construct: Bought
T6 sequence (looked up): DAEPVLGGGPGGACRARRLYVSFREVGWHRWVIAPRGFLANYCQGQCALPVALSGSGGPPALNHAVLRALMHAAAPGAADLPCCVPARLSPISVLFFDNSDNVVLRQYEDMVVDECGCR

human BMP2 protein [7] = biological target: T7, human BMP2 protein (human, UniProt P12643 283-396); test: ELISA, coated protein, antibody at 4 µg/mL
T7 construct: Bought

human GDF2 protein [8] = biological target: T8, human GDF2 protein (human, UniProt Q9UK05 320-429); test: ELISA, coated protein, antibody at 4 µg/mL
T8 construct: Bought
T8 sequence (looked up): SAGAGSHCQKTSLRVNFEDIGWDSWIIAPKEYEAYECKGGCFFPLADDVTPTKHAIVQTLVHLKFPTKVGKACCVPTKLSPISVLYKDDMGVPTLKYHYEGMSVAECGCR

human TGFβ1 protein [9] = biological target: T9, human TGFβ1 protein (human, UniProt P01137 279-390); test: ELISA, coated protein, antibody at 4 µg/mL
T9 construct: Bought

human GDF3 protein [10] = biological target: T10, human GDF3 protein (human, UniProt Q9NR23 251-364, limits assumed); test: ELISA, coated protein, antibody at 4 µg/mL
T10 construct: Bought
T10 sequence (looked up): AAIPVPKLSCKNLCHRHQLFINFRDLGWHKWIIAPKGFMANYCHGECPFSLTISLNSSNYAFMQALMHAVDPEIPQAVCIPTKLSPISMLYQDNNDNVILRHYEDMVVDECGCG

human GDF11 protein [11] = biological target: T11, human GDF11 protein (human, UniProt O95390 299-407); test: ELISA, coated protein, antibody at 4 µg/mL
T11 construct: Bought
T11 sequence (looked up): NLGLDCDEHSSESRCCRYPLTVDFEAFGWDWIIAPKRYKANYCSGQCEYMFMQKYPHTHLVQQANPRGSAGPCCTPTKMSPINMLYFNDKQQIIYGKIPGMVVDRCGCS

[12] = biological target: human GDF8 protein (human) (UniProt O14793); test: ELISA, coated protein, antibody at 4 µg/mL
human GDNF protein = biological target: T12, human GDNF protein (human, UniProt P39905 78-211); test: ELISA, coated protein, antibody at 4 µg/mL
T12 construct: Bought
T12 sequence (looked up): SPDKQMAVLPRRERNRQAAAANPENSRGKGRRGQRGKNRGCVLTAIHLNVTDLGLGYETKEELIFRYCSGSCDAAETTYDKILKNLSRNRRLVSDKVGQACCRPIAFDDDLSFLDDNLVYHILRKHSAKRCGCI

human Activin B protein [13] = biological target: T4, human Activin B protein; test: ELISA, coated protein, antibody at 4 µg/mL; remark: listed apart in the source
human Activin A protein [14] = biological target: T5, human Activin A protein; test: ELISA, coated protein, antibody at 4 µg/mL; remark: listed apart in the source
human BMP2 protein [15] = biological target: T7, human BMP2 protein; test: ELISA, coated protein, antibody at 4 µg/mL; remark: listed apart in the source
human BMP4 protein [16] = biological target: T1, human BMP4 protein; test: ELISA, coated protein, antibody at 4 µg/mL; remark: listed apart in the source
human GFRα1 protein [17] = biological target: T2, human GFRα1 protein; test: ELISA, coated protein, antibody at 4 µg/mL; remark: listed apart in the source
human Activin B protein [18] = biological target: T4, human Activin B protein; test: ELISA, coated protein, antibody at 4 µg/mL; remark: listed apart in the source
human Activin A protein [19] = biological target: T5, human Activin A protein; test: ELISA, coated protein, antibody at 4 µg/mL; remark: listed apart in the source
human GDF1 protein [20] = biological target: T6, human GDF1 protein; test: ELISA, coated protein, antibody at 4 µg/mL; remark: listed apart in the source
human BMP2 protein [21] = biological target: T7, human BMP2 protein; test: ELISA, coated protein, antibody at 4 µg/mL; remark: listed apart in the source
human GDF2 protein [22] = biological target: T8, human GDF2 protein; test: ELISA, coated protein, antibody at 4 µg/mL; remark: listed apart in the source
human TGFβ1 protein [23] = biological target: T9, human TGFβ1 protein; test: ELISA, coated protein, antibody at 4 µg/mL; remark: listed apart in the source
human GDF3 protein [24] = biological target: T10, human GDF3 protein; test: ELISA, coated protein, antibody at 4 µg/mL; remark: listed apart in the source
human GDF11 protein [25] = biological target: T11, human GDF11 protein; test: ELISA, coated protein, antibody at 4 µg/mL; remark: listed apart in the source
human BMP4 protein [26] = biological target: T1, human BMP4 protein; test: ELISA, coated protein
human GFRα1 protein [27] = biological target: T2, human GFRα1 protein; test: ELISA, coated protein
human Activin B protein [28] = biological target: T4, human Activin B protein; test: ELISA, coated protein
human Activin A protein [29] = biological target: T5, human Activin A protein; test: ELISA, coated protein
human GDF1 protein [30] = biological target: T6, human GDF1 protein; test: ELISA, coated protein
human BMP2 protein [31] = biological target: T7, human BMP2 protein; test: ELISA, coated protein
human GDF2 protein [32] = biological target: T8, human GDF2 protein; test: ELISA, coated protein
human TGFβ1 protein [33] = biological target: T9, human TGFβ1 protein; test: ELISA, coated protein
human GDF3 protein [34] = biological target: T10, human GDF3 protein; test: ELISA, coated protein
human GDF11 protein [35] = biological target: T11, human GDF11 protein; test: ELISA, coated protein
human FcRn protein = biological target: T13, human FcRn protein (human, UniProt P55899 24-297); test: BLI (Octet RED96e), FcRn on SA sensor, antibody as analyte, binding and dissociation at pH 6.0, 1:1 model
T13 construct: Bought, loaded on a streptavidin (SA) sensor; FcRn is by nature a heterodimer with beta-2-microglobulin
T13 sequence (P55899 24-297 limits assumed, form in doubt): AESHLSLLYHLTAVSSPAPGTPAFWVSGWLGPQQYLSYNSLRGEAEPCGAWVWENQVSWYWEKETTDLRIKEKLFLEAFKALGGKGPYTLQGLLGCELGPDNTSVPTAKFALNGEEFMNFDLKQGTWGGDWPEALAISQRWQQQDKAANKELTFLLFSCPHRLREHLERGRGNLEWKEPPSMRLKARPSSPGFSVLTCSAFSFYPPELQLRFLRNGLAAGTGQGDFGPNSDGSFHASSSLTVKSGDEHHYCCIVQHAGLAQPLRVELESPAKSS

T7 sequence (P12643 283-396 limits assumed): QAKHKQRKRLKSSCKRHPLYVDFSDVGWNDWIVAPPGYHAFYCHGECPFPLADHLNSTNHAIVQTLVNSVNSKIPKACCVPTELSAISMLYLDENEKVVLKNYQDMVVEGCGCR
T9 sequence (P01137 279-390 limits assumed): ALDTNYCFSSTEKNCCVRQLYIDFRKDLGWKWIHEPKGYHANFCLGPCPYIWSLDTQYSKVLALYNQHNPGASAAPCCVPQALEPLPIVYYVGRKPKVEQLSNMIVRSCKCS

OD value (OD 450 nm-620 nm) (human BMP4 protein [1]): 0.0639
OD value (OD 450 nm-620 nm) (human GFRα1 protein [2]): 0.124
OD value (OD 450 nm-620 nm) (Human GDF15 protein): 3.33
OD value (OD 450 nm-620 nm) (human Activin B protein [3]): 0.156
OD value (OD 450 nm-620 nm) (human Activin A protein [4]): 0.0863
OD value (OD 450 nm-620 nm) [5]: 0.0754
OD value (OD 450 nm-620 nm) (human GDF1 protein [6]): 0.0818
OD value (OD 450 nm-620 nm) (human BMP2 protein [7]): 0.227
OD value (OD 450 nm-620 nm) (human GDF2 protein [8]): 0.555
OD value (OD 450 nm-620 nm) (human TGFβ1 protein [9]): 0.129
OD value (OD 450 nm-620 nm) (human GDF3 protein [10]): 0.0676
OD value (OD 450 nm-620 nm) (human GDF11 protein [11]): 0.0375
OD value (OD 450 nm-620 nm) [12]: 0.0755
OD value (OD 450 nm-620 nm) (human GDNF protein): 1.21
OD value (OD 450 nm-620 nm) (human Activin B protein [13]): 0.187
OD value (OD 450 nm-620 nm) (human Activin A protein [14]): 0.0698
OD value (OD 450 nm-620 nm) (human BMP2 protein [15]): 0.265
Molecule: Ponsegromab (antibody)

OD value (human BMP4 protein [16]): 0.0595 OD 450 nm-620 nm
OD value (human GFRα1 protein [17]): 0.132 OD 450 nm-620 nm
OD value (human Activin B protein [18]): 0.114 OD 450 nm-620 nm
OD value (human Activin A protein [19]): 0.0582 OD 450 nm-620 nm
OD value (human GDF1 protein [20]): 0.144 OD 450 nm-620 nm
OD value (human BMP2 protein [21]): 0.0973 OD 450 nm-620 nm
OD value (human GDF2 protein [22]): 0.0643 OD 450 nm-620 nm
OD value (human TGFβ1 protein [23]): 0.114 OD 450 nm-620 nm
OD value (human GDF3 protein [24]): 0.0907 OD 450 nm-620 nm
OD value (human GDF11 protein [25]): 0.0709 OD 450 nm-620 nm
OD value (OD 450 nm-620 nm) (Human GDF15 protein): 2.39
OD value (OD 450 nm-620 nm) [5]: 0.0409
OD value (OD 450 nm-620 nm) [12]: 0.0508
OD value (OD 450 nm-620 nm) (human GDNF protein): 0.296
binding result (human BMP4 protein [26]): no binding (tested: 4 µg/mL)
binding result (human GFRα1 protein [27]): no binding (tested: 4 µg/mL)
binding result (human Activin B protein [28]): no binding (tested: 4 µg/mL)
binding result (human Activin A protein [29]): no binding (tested: 4 µg/mL)
binding result (human GDF1 protein [30]): no binding (tested: 4 µg/mL)
binding result (human BMP2 protein [31]): no binding (tested: 4 µg/mL)
binding result (human GDF2 protein [32]): no binding (tested: 4 µg/mL)
binding result (human TGFβ1 protein [33]): no binding (tested: 4 µg/mL)
binding result (human GDF3 protein [34]): no binding (tested: 4 µg/mL)
binding result (human GDF11 protein [35]): no binding (tested: 4 µg/mL)
Kd (human FcRn protein): 2.89 nM
koff (human FcRn protein): 0.00257 s⁻¹
kon (human FcRn protein): 889000 M⁻¹ s⁻¹
B1: hu19C4C7-YTE (antibody, human IgG1, kappa)
heavy: QVQLVQSGAEVKKPGSSVKVSCKASGYSFTGYIMNWVRQAPGQSLEWMGDIDPYYGGPNYNQKFQGRVTITVDKSTSTAYMELSSLRSEDTAVYYCSRRDYNYGSFAYWGQGTLVTVSSASTKGPSVFPLAPSSKSTSGGTAALGCLVKDYFPEPVTVSWNSGALTSGVHTFPAVLQSSGLYSLSSVVTVPSSSLGTQTYICNVNHKPSNTKVDKKVEPKSCDKTHTCPPCPAPEAAGAPSVFLFPPKPKDTLYITREPEVTCVVVDVSHEDPEVKFNWYVDGVEVHNAKTKPREEQYNSTYRVVSVLTVLHQDWLNGKEYKCKVSNKALPAPIEKTISKAKGQPREPQVYTLPPSREEMTKNQVSLTCLVKGFYPSDIAVEWESNGQPENNYKTTPPVLDSDGSFFLYSKLTVDKSRWQQGNVFSCSVMHEALHNHYTQKSLSLSPGK
light: QIVLTQSPATLSLSPGERATLSCRASSSVNYMHWYQQKPGQAPRPLIYATSNLATGIPARFSGSGSGTDYTLTISSLEPEDFAVYYCQQWSDNPPTFGQGTKLEIKRTVAAPSVFIFPPSDEQLKSGTASVVCLLNNFYPREAKVQWKVDNALQSGNSQESVTEQDSKDSTYSLSSTLTLSKADYEKHKVYACEVTHQGLSSPVTKSFNRGEC
notes: Hu19C4C7 with human IgG1 constant region carrying L234A, L235A, G237A, M252Y, S254T, T256E (EU numbering); also called hu19C4C7-YTE-IgG1-mut
